Entries after “also recorded” stand apart in the source; their conditions may differ.
Legend:
Type in all cases: cell-based
[1] = tested on: Huh7 cells; assay: Gene expression microarray of Huh7 cells treated with ERFE; details: Huh7, ERFE 10 μg/ml, 24 h
Method: (§1) (b) Gene expression microarray: Microarray analysis of Huh7 cells treated with mouse or human erythroferrone was carried out to test the activity of erythroferrone on the BMP/SMAD signalling pathway. Generally cell treatments were carried out according to the following protocol: Huh7 and HepG2 were cultured in Dulbecco's Modified Eagle's Medium—High Glucose (Sigma), supplemented with 10% Fetal Bovine Serum (Sigma), 1% Penicillin-Streptomycin (Sigma) and 1% L-Glutamine (Sigma), unless otherwise indicated. Cells were plated 24 h before treatments in 24-well (gene expression analysis) or 12-well (protein analysis) cell culture plates. At the time of treatment, cells were washed with PBS and fresh media was added.
For the purposes of gene expression microarray analysis RNA was isolated from the Huh7 cells using RNeasy Plus kit (Qiagen), this was followed by RNA quantification and quality assessment using a 2100 Bioanalyzer (Agilent). RNA was converted into biotin labelled cRNA for hybridization and gene expression analysed using the Human HT12v4.0 Expression Beadchip (Illumina) and the Illuminas's iScan Scanner. Raw data was normalised using the lumi package (Bioconductor) and compared using LIMMA (Bioconductor). Statistical significance was set at p<0.05.

[2] = tested on: Huh7 cells; assay: qRT-PCR of BMP/SMAD target genes in Huh7 cells treated with ERFE; details: Huh7, mouse ERFE 10 μg/ml vs vehicle
Method: as §1
(§2) (c) RNA isolation, cDNA synthesis and qRT-PCR: Suppression of several BMP-target genes: HAMP, ID1, ID3, SMAD6 and SMAD7 was further confirmed by qRT-PCR. Cells were lysed and RNA was isolated using the RNeasy Plus kit (Qiagen), followed by RNA quantification and quality assessment using Nanodrop (Thermo Fisher). cDNA was synthesized using the High Capacity RNA-to-cDNA kit (Applied Biosystems). Gene expression was assessed using quantitative real-time PCR with Taqman Gene Expression Master Mix and inventoried Taqman Gene expression assays (Applied Biosystems) specific for the genes of interest according to the manufacturer's instructions.

[3] = tested on: Huh7 cells; assay: HAMP and ID1 qRT-PCR in Huh7 cells treated with BMPs with or without mouse ERFE; details: 2 nM BMP 2/6, BMP5, BMP6 or BMP7 + 10 μg/ml mouse ERFE, 6 h, serum-free media
Method: as §1
as §2, with “instructions. […]” for “instructions.”

[4] = tested on: HepG2 cells; assay: HAMP and ID1 qRT-PCR in HepG2 cells treated with BMPs with or without mouse ERFE; details: 2 nM BMP 2/6, BMP6 or BMP7 + 10 μg/ml mouse ERFE, 6 h, serum-free media
Method: as §1
as §2, with “instructions. […]” for “instructions.”

B1: mouse ERFE: recombinant mouse erythroferrone (SEQ ID NO: 2); monoFC-muErfe is a monomeric FC murine ERFE fusion (protein, listed as Mus musculus)
chain: MASRRPVGARTLLACASLLAAMGLGVPESAEPVGTHARPQPPGAELPAPPANSPPEPIAHAHSVDPRDAWMLFVKQSDKGINSKRRSKARRLKLGLPGPPGPPGPQGPPGPFIPSEVLLKEFQLLLKGAVRQRESHLEHCTRDLPASGSPSRVPAAQELDSQDPGALLALLAATLAQGPRAPRVEAAFHCRLRRDVQVDRRALHELGIYYLPEVEGAFHRGPGLNLTSGQYTAPVAGFYALAATLHVALTEQPRKGPTRPRDRLRLLICIQSLCQHNASLETVMGLENSSELFISVNGVLYLQAGHYSVFLDNASGSSLTVRSGSHFSAILLGL
Q: With B1 as the molecule, how does the “target genes of the JAK/STAT3 pathway” value [1] read?
A: Its value is “No changes”.

Q: And the “number of suppressed genes” value ([1]; 5 are BMP/SMAD targets ID1, ID2, ID3, SMAD6, HAMP)?
A: The value was 12.

Q: And the “expression of BMP-target genes HAMP, ID1, ID3, SMAD6 and SMAD7” value [2]?
A: Its value is “Suppression”.

Q: And the “expression of FGA (JAK/STAT3 target gene)” value [2]?
A: The value was “no changes”.

Q: And the “HAMP and ID1 expression / BMP/SMAD signalling in BMP-treated Huh7 cells” value [3]?
A: Its value is “suppresses; also recorded: suppression”.

Q: And the “HAMP and ID1 expression / BMP/SMAD signalling in BMP-treated HepG2 cells” value [4]?
A: The value was “suppresses”.

From patent publication US20210196823A1, “Methods of Treating Metabolic Disease” (Pfizer Inc., priority 2018, published 2021)
